In US20240400708A1:

Molecular target: feline FcRn complex (FcRn-α subunit and β-microglobulin), biotin labeled (feline)
Test: SPR, pH 6

Binder	Kd [nM]
feline IgG1a S254T (antibody, part only; not given: Variable domains, not shown: another chain or arm of the molecule) constant: ASTTAPSVFPLAPSCGTTSGATVALACLVLGYFPEPVTVSWNSGALTSGVHTFPAVLQASGLYSLSSMVTVPSSRWLSDTFTCNVAHPPSNTKVDKTVRKTDHPPGPKPCDCPKCPPPEMLGGPSIFIFPPKPKDTLSITRTPEVTCLVVDLGPDDSDVQITWFVDNTQVYTAKTSPREEQFNSTYRVVSVLPILHQDWLKGKEFKCKVNSKSLPSPIERTISKAKGQPHEPQVYVLPPAQEELSRNKVSVTCLIKSFHPPDIAVEWEITGQPEPENNYRTTPPQLDSDGTYFVYSKLSVDRSHWQRGNTYTCSVSHEALHSHHTQKSLTQSPGK	16.1
feline IgG1a T256D (antibody, part only; not given: Variable domains, not shown: another chain or arm of the molecule) constant: ASTTAPSVFPLAPSCGTTSGATVALACLVLGYFPEPVTVSWNSGALTSGVHTFPAVLQASGLYSLSSMVTVPSSRWLSDTFTCNVAHPPSNTKVDKTVRKTDHPPGPKPCDCPKCPPPEMLGGPSIFIFPPKPKDTLSISRDPEVTCLVVDLGPDDSDVQITWFVDNTQVYTAKTSPREEQFNSTYRVVSVLPILHQDWLKGKEFKCKVNSKSLPSPIERTISKAKGQPHEPQVYVLPPAQEELSRNKVSVTCLIKSFHPPDIAVEWEITGQPEPENNYRTTPPQLDSDGTYFVYSKLSVDRSHWQRGNTYTCSVSHEALHSHHTQKSLTQSPGK	244
feline IgG1a S254Y (antibody, part only; not given: Variable domains, not shown: another chain or arm of the molecule) constant: ASTTAPSVFPLAPSCGTTSGATVALACLVLGYFPEPVTVSWNSGALTSGVHTFPAVLQASGLYSLSSMVTVPSSRWLSDTFTCNVAHPPSNTKVDKTVRKTDHPPGPKPCDCPKCPPPEMLGGPSIFIFPPKPKDTLSIYRTPEVTCLVVDLGPDDSDVQITWFVDNTQVYTAKTSPREEQFNSTYRVVSVLPILHQDWLKGKEFKCKVNSKSLPSPIERTISKAKGQPHEPQVYVLPPAQEELSRNKVSVTCLIKSFHPPDIAVEWEITGQPEPENNYRTTPPQLDSDGTYFVYSKLSVDRSHWQRGNTYTCSVSHEALHSHHTQKSLTQSPGK	78.5
feline IgG1a T256A (antibody, part only; not given: Variable domains, not shown: another chain or arm of the molecule) constant: ASTTAPSVFPLAPSCGTTSGATVALACLVLGYFPEPVTVSWNSGALTSGVHTFPAVLQASGLYSLSSMVTVPSSRWLSDTFTCNVAHPPSNTKVDKTVRKTDHPPGPKPCDCPKCPPPEMLGGPSIFIFPPKPKDTLSISRAPEVTCLVVDLGPDDSDVQITWFVDNTQVYTAKTSPREEQFNSTYRVVSVLPILHQDWLKGKEFKCKVNSKSLPSPIERTISKAKGQPHEPQVYVLPPAQEELSRNKVSVTCLIKSFHPPDIAVEWEITGQPEPENNYRTTPPQLDSDGTYFVYSKLSVDRSHWQRGNTYTCSVSHEALHSHHTQKSLTQSPGK	40.6

Further binders by falling Kd, results first:

Kd [nM]	Binder
154	feline IgG1a T256C (antibody, part only; not given: Variable domains, not shown: another chain or arm of the molecule) constant: ASTTAPSVFPLAPSCGTTSGATVALACLVLGYFPEPVTVSWNSGALTSGVHTFPAVLQASGLYSLSSMVTVPSSRWLSDTFTCNVAHPPSNTKVDKTVRKTDHPPGPKPCDCPKCPPPEMLGGPSIFIFPPKPKDTLSISRCPEVTCLVVDLGPDDSDVQITWFVDNTQVYTAKTSPREEQFNSTYRVVSVLPILHQDWLKGKEFKCKVNSKSLPSPIERTISKAKGQPHEPQVYVLPPAQEELSRNKVSVTCLIKSFHPPDIAVEWEITGQPEPENNYRTTPPQLDSDGTYFVYSKLSVDRSHWQRGNTYTCSVSHEALHSHHTQKSLTQSPGK
60.9	feline IgG1a S254W (antibody, part only; not given: Variable domains, not shown: another chain or arm of the molecule) constant: ASTTAPSVFPLAPSCGTTSGATVALACLVLGYFPEPVTVSWNSGALTSGVHTFPAVLQASGLYSLSSMVTVPSSRWLSDTFTCNVAHPPSNTKVDKTVRKTDHPPGPKPCDCPKCPPPEMLGGPSIFIFPPKPKDTLSIWRTPEVTCLVVDLGPDDSDVQITWFVDNTQVYTAKTSPREEQFNSTYRVVSVLPILHQDWLKGKEFKCKVNSKSLPSPIERTISKAKGQPHEPQVYVLPPAQEELSRNKVSVTCLIKSFHPPDIAVEWEITGQPEPENNYRTTPPQLDSDGTYFVYSKLSVDRSHWQRGNTYTCSVSHEALHSHHTQKSLTQSPGK
